Square brackets hold non-standard residues; d marks the D form. * marks the point of attachment. Cbz = O=C(OCc1ccccc1)*
Assays:
Gadd45β/MKK7 complex = target: T1, Gadd45β/MKK7 complex (Homo sapiens, UniProt O14733); test: co-immunoprecipitation assay; assay type: binding; settings: anti-FLAG immunoprecipitates, HEK-293T lysates
T1 construct: expressed in transfected cells; host or cells: human HEK-293T
T1 sequence (O14733 1-419): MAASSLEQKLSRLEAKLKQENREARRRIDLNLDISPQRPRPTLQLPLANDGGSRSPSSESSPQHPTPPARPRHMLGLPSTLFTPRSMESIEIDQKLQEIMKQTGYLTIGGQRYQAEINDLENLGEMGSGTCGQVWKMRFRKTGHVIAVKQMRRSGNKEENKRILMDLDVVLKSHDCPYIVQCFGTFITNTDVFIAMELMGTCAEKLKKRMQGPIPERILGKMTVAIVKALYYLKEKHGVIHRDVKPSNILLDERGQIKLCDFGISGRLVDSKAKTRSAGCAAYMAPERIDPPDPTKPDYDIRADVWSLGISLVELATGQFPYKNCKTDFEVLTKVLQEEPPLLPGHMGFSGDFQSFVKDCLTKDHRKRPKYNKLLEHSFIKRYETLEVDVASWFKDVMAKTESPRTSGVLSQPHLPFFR
Method: (§1) Values express the percentage of live cells present in the treated cultures relative to the live cells present in the respective untreated cultures and denote means±SD ([WM]; n=3). UT, untreated. […] Values express the percentage of inhibition of Gadd45β binding to MKK7 relative to the binding measured in the absence of peptide. […] Co-immunoprecipitations (IP) were performed using an anti-FLAG antibody (a-FLAG); western blots (WB) were developed using an anti-HA or an anti-MKK7 antibody, as shown.
Co-immunoprecipitation assays were performed as described previously (Papa et al., 2004). Briefly, human HEK-293T cells were seeded at a density of 1.8-2.2×10^6 cells/dish in […] tissue-culture dishes and then transfected with pcDNA-FLAG-hMKK7 and pcDNA-HA-hGADD45β by using the calcium phosphate precipitation method (Papa et al., 2004). 48 hr after transfection, cells were washed with PBS and then lysed in lysis buffer supplemented with protease inhibitors (1 mM phenylmethylsulfonylfluoride, 10 μM chymostatin, 2 μg/mL aprotinin, 2 μg/mL leupeptin; Roche) for 30 min in ice. Cell lysates were cleared by centrifugation at 45,000×g for 40 min and then used for co-immunoprecipitations with anti-FLAG M2 Affinity Gel (Sigma-Aldrich), binding to FLAG-tagged MKK7. Western blots were developed using an anti-HA (binding to HA-hGADD45β) or an anti-MKK7 antibody. […]

[1] = system: diffuse large B-cell lymphoma (DLBCL) cell lines; test: PI nuclear staining assay, apoptotic cells in DLBCL cell lines; assay type: cell-based, human; settings: 6 days; sensitive and insensitive DLBCL cell lines; baseline level
Method: Current treatment of diffuse large B-cell lymphoma typically involves treatment with combination therapy, such as cyclophosphamide, doxorubicin, vincristine and prednisone (CHOP), or rituximab, cyclophosphamide, doxorubicin, vincristine and prednisone (R-CHOP). With those current treatments, many patients relapse and/or develop drug resistance at some point. The potential of the Gadd45β/MKK7 inhibitor DTP3 to operate in these settings was evaluated, by determining levels of apoptosis in diffuse large B-cell lymphoma cell lines known to be resistant to current therapies (HT, SU-DHL-8, U-2932, RC-K8 and RIVA, see for example Kaneko et al, Clinical Cancer Research, 2014, 20, p 1814-1820; Naylor et al, Cancer Research, 2011, Volume 71, p 2643-2653; Lyu et al, Cancer Research, 2013, Volume 73, Issue 8, Supplement 1), following treatment of those cells with DTP3. These cells have CARD11, A20 and/or MYD88 mutations and are also known to be resistant to agents such as Bruton's tyrosine kinase inhibitors, spleen tyrosine kinase inhibitors, PI3K inhibitors and/or protein kinase C inhibitors.
The percentages of apoptotic cells are depicted.
A comparison was made between the ability of DTP3 to kill various DLBCL cell lines by apoptosis in vitro. Cell lines HT, SU-DHL-8, U-2932 and RC-K8 which are known to be sensitive to DTP3; and insensitive cell lines RI-1, NU-DUL-1, TMD8, and HBL1 were used. Cell death was assessed using a standard propidium iodide (PI) nuclear staining assay followed by flow cytometry whereby the proportion of cells with a sub G1-DNA content was measured after cells had been exposed to DTP3 for 6 days at 10 μM. As controls, further populations of cells were left untreated (UT) or were treated with a scrambled D-tripeptide (SCR) for 6 days.
Apoptosis analyses were performed using propidium iodide (PI) nuclear labelling, as described previously (Riccardi and Nicoletti, 2006). Briefly, cells were seeded at a density of 2×10^5 cells/well into wells of either 24- or 48-well plates and cultured in the presence or absence of treatment, as shown. Cells were then fixed in 70% ice-cold ethanol for 16 hr, washed in PBS, and treated with ribonuclease A (50 μg/mL) for 30 min at room temperature. Samples were finally stained with PI (50 μg/mL) in 0.1% sodium citrate buffer for 2 to 4 hr at 4° C. in the dark, and data were acquired using a FACSCalibur automated system (Becton Dickinson) and analysed with FlowJo.

[2] = system: multiple myeloma cell lines; test: [3H]thymidine incorporation assay, survival of multiple myeloma cell lines; assay type: cell-based, human; settings: for cytotoxic activity in multiple myeloma cell lines: 6-day treatment, all lines tested apart from RPMI-8226 and KMM-1; for IC50 values in the sensitive multiple myeloma cell lines: 144 hr, sensitive (Gadd45β-dependent) cell lines
Method: as §1
[^3H]Thymidine incorporation and trypan blue exclusion assays were performed using standard methods (Mauro et al., 2011). […] Apoptosis analyses were performed using PI staining as described in Mauro et al., 2011. Additional details are provided in the Supplemental Experimental Procedures.

[3] = target: GST-MKK7 (full-length human MKK7 fused to an N-terminal GST tag) (human) (UniProt O14733); test: ELISA Gadd45β/MKK7 competition (summary sentence on FIGS. 4 to 8)
[4] = mouse, in vivo
Method: In vitro pharmacokinetic assays were performed according to established, in-house protocols and included: plasma stability (human), thermodynamic solubility (PBS pH 7.4, at 37° C. for 14 days), microsomal stability (human), plasma protein binding (PPB; mouse and human), and distribution coefficient (Log D). In vivo pharmacokinetic analyses were also performed at Cyprotex according to established, in-house protocols. Briefly, the peptides were dissolved in PBS and administered by single intravenous injection to CD1 male mice at the dose of 10 mg/kg (25-30 g of total body weight; n=3 mice per time point per compound). Blood samples were collected in heparinized tubes at up to 7 time points after this injection (i.e. 0.08, 0.25, 0.5, 1, 2, 4 and 8 hr), and the plasma concentrations of the test peptide were determined at each time point by LC-MS/MS, using a five-point standard curve covering a peptide concentration range from 3 to 3,000 ng/mL. Standard curves were prepared using blank plasma matrices and treated in the same manner as the test samples. […] Values were calculated from the data of the peptide plasma concentration versus time curves using a non-compartmental model analysis, as described elsewhere (Groulx, 2006; Landaw and Di Stefano 3rd, 1982). The doses of z-DTP2 and DTP3 predicted to achieve the therapeutic plasma concentration of 1 μM at the steady state were calculated from the measured pharmacokinetic values using the following equation: k0=k1×Vd×Cp (where Vd is expressed in L/kg; Cp is the plasma concentration at the steady state expressed in mg/L; k0 is the zero order input expressed in mg/kg/hr; k1 is the first order elimination constant [0.693/t1/2]).

KMS-12 cells = test: [3H]thymidine incorporation assay, DTP3 and bortezomib as single agents or in combination, KMS-12; settings: Homo sapiens, 48 h, read-out: IC50 value as single agent
Method: (§2) Treatments with DTP3 were for 6 days; bortezomib was added to the cell cultures 48 hr prior to the measurement of cell viability. For the combination treatment, DTP3 was used at the concentrations of 3 nM in U266 cells and of 10 nM in KMS-12 cells, whereas bortezomib was used at increasing concentrations, as shown.
Viability data from the experiment shown in FIG. 12 were converted into values representing the fraction of cells affected (FA) equaling 0.5 in the drug-treated cultures compared with untreated cultures, and the interaction of DTP3 with bortezomib was analysed according to the Chou-Talalay method (Chou, 2006). Also shown are the drug concentrations giving the FA value of 0.5 and the description of the CI. Based on the Chou-Talalay equation (Chou, 2006), synergy is present when the CI is less than 1.0 (where values between 0.3 and 0.7 denote synergism, and values between 0.1 and 0.3 denote strong synergism); the combination is additive when CI equals 1.0, and antagonistic when it is more than 1.0 (Chou, 2006).
(§3) [^3H]Thymidine incorporation assays were performed using standard protocols (Griffiths and Sundaram, 2011). […] At 24, 72 or 144 hr, cells were incubated for an additional 16 hr with 0.037 MBq/well of [^3H]thymidine (Amersham), and then harvested onto glass fibre filter mats using a 96-well plate automated Tomtec cell harvester (Receptor Technologies) and analysed by liquid scintillation spectroscopy with a LKB Wallac Trilux Microbeta 3 b-counter (PerkinElmer). Values were expressed as the percentage of the counts per minute (cpm) measured in the treated cultures relative to the cpm measured in the respective untreated cultures. […]
The activities of DTP3 and bortezomib in the U266 and KMS-12 myeloma cell lines, both as single agents and in combination, were determined using [^3H]thymidine incorporation assays, performed as described above in “Cell Proliferation, Cell Death, and Apoptosis Assays”. The IC50 values of bortezomib as single agent were determined at 48 hr using 9 concentrations of drug, ranging from 0.1 to 1,000 nM.

U266 cells = test: [3H]thymidine incorporation assay, DTP3 and bortezomib as single agents or in combination, U266; settings: Homo sapiens, U-266, 48 h, read-out: IC50 value as single agent
Method: as §2
Viability data from the experiment shown in FIG. 12 were converted into values representing the fraction of cells affected (FA) equaling 0.5 in the drug-treated cultures compared with untreated cultures, and the interaction of DTP3 with bortezomib was analysed according to the Chou-Talalay method (Chou, 2006). Also shown are the drug concentrations giving the FA value of 0.5 and the description of the CI. […]
as §3

[5] = target: GST-MKK7 (full-length human MKK7 fused to an N-terminal GST tag) (human) (UniProt O14733); test: ELISA Gadd45β/MKK7 competition; after 48-hr pre-incubation with human serum at 37 C
[6] = target: GST-MKK7 (full-length human MKK7 fused to an N-terminal GST tag) (human) (UniProt O14733); test: ELISA Gadd45β/MKK7 competition; without serum pre-incubation

Ac-Arg-Phe-Tyr-NH2 (Ac-[dR]-[dF]-[dY]-NH2) [SCRB, scrambled control D-tripeptide, reference compound]
disruption of the Gadd45β/MKK7 complex (Gadd45β/MKK7 complex): not | percentage of apoptotic cells [1]: no more than 27.2%

tetrapeptide Tyr-Asp-His-Phe, D-configuration, NH2 group at the C terminal, benzyloxycarbonyl group at the N terminal (Cbz-[dY][dD][dH][dF]-NH2) [z-DTP1]
cytotoxic activity in multiple myeloma cell lines [2]: potent and dose-dependent toxicity | IC50 values in the sensitive multiple myeloma cell lines [2]: low nM to low μM

DTP3 (Acetyl-Tyr-Arg-Phe-NH2, all residues in the D configuration) (peptide)
IC50 [3]: < 1 nM

tetrapeptide Tyr-Glu-Arg-Phe, D configuration, NH2 group at the C terminal, benzyloxycarbonyl group at the N terminal (Cbz-[dY][dE][dR][dF]-NH2) [z-DTP2]
predicted dose required to achieve the therapeutic plasma concentration of 1 μM at the steady state (k0) [4]: 3.61 mg/kg/h | cytotoxic activity in multiple myeloma cell lines [2]: potent and dose-dependent toxicity | IC50 values in the sensitive multiple myeloma cell lines [2]: low nM to low μM

CC(C)C[C@H](NC(=O)[C@H](Cc1ccccc1)NC(=O)c1cnccn1)B(O)O [bortezomib, reference compound]
IC50 (KMS-12 cells): 6 nM | IC50 (U266 cells): 6 nM

DTP3 (Acetyl-Tyr-Arg-Phe-NH2, all residues in the D configuration)
IC50 [5]: 0.13 nM | IC50 [6]: 0.16 nM
